B1: Integrin beta-3 (Homo sapiens), P05106 (parent)
chain: MRARPRPRPLWATVLALGALAGVGVGGPNICTTRGVSSCQQCLAVSPMCAWCSDEALPLGSPRCDLKENLLKDNCAPESIEFPVSEARVLEDRPLSDKGSGDSSQVTQVSPQRIALRLRPDDSKNFSIQVRQVEDYPVDIYYLMDLSYSMKDDLWSIQNLGTKLATQMRKLTSNLRIGFGAFVDKPVSPYMYISPPEALENPCYDMKTTCLPMFGYKHVLTLTDQVTRFNEEVKKQSVSRNRDAPEGGFDAIMQATVCDEKIGWRNDASHLLVFTTDAKTHIALDGRLAGIVQPNDGQCHVGSDNHYSASTTMDYPSLGLMTEKLSQKNINLIFAVTENVVNLYQNYSELIPGTTVGVLSMDSSNVLQLIVDAYGKIRSKVELEVRDLPEELSLSFNATCLNNEVIPGLKSCMGLKIGDTVSFSIEAKVRGCPQEKEKSFTIKPVGFKDSLIVQVTFDCDCACQAQAEPNSHRCNNGNGTFECGVCRCGPGWLGSQCECSEEDYRPSQQDECSPREGQPVCSQRGECLCGQCVCHSSDFGKITGKYCECDDFSCVRYKGEMCSGHGQCSCGDCLCDSDWTGYYCNCTTRTDTCMSSNGLLCSGRGKCECGSCVCIQPGSYGDTCEKCPTCPDACTFKKECVECKKFDRGALHDENTCNRYCRDEIESVKELKDTGKDAVNCTYKNEDDCVVRFQYYEDSSGKSILYVVEEPECPKGPDILVVLLSVMGAILLIGLAALLIWKLLITIHDRKEFAKFEEERARAKWDTANNPLYKEATSTFTNITYRGT

Variants of: B1
Details: with ita2b_human ITGA2B

| effect of a mutation on the interaction | Variant |
| --- | --- |
| decreasing interaction | L738A |

Variants of: B1
Details: with ita2b_human ITGA2B
Remark: another data set of the same source

| effect of a mutation on the interaction | Variant |
| --- | --- |
| decreasing interaction | W741Y |

Variants of: B1
Details: with ita2b_human ITGA2B
Remark: another data set of the same source

| effect of a mutation on the interaction | Variant |
| --- | --- |
| decreasing interaction | I719A |

Variants of: B1
Details: with ita2b_human ITGA2B
Remark: another data set of the same source

| effect of a mutation on the interaction | Variant |
| --- | --- |
| decreasing interaction | D749A |
